Assay results taken from patent US10017787B2, “Production of alkenes from 3-hydroxycarboxylic acids via 3-hydroxycarboxyl-nucleotidylic acids” (Global Bioenergies, priority 2013, dated 2018).

Key:
(R,S)-3-hydroxybutyrate [1] = test: Adenylation of 3-hydroxybutyrate with ATP or ADP as co-substrates, spectrophotometric assay; format: biochemical; settings: 5 mM (R,S)-3-hydroxybutyrate, 0-3.2 mM ATP or ADP, 0.1 mg/ml enzyme (FIGS. 15 and 16)
Description: Spectrophotometric assay was performed according to the procedure described in Example 2. The specificity of acyl-CoA synthase from M. algicola and AMP-dependent synthetase/ligase from Burkholderia sp. with respect to co-substrates was analyzed. Standard reaction contained:
0.1 mg/ml of purified enzyme
2-amino-6-mercapto-7-methylpurine ribonucleoside (MESG), purine nucleoside phosphorylase (PNP) and inorganic pyrophosphatase were added to the reaction mix according to the procedure described in the EnzCheck® Pyrophosphatase Assay Kit. A reaction mixture without inorganic pyrophosphatase was used for assays with ADP as co-substrate. Control assays were performed in which either no enzyme was added, or no 3-hydroxybutyrate was added. Each assay was started with the addition of co-substrate (ATP or ADP). Each sample was continuously monitored for the increase of 2-amino-6-mercapto-7-methylpurine at 360 nm on a SpectraMax Plus 384 UV/Vis Microplate Reader (Molecular Devices).

(R,S)-3-hydroxybutyrate [2] = test: Propylene production from 3-hydroxybutyrate, M. aquaeolei enzyme and OleC proteins, GC-FID; format: biochemical; settings: 50 mM (R,S)-3-hydroxybutyrate, 10 mM ATP, 2 mg/ml each enzyme, 18 hours at 37° C.
Description: The studied enzymes were produced and purified according to the procedure described in Example 1. The studied reaction was carried out under the following conditions
2 mg/ml purified AMP-dependent synthetase/ligase from M. aquaeolei
2 mg/ml purified OleC protein from Shewanella amazonensis or from Chloroflexus aurantiacus
Reaction volume was 0.3 ml.
For the no enzymes control, buffer was used in place of enzymes.
Controls reactions without ATP were realized in parallel.
The reaction mixtures were incubated in 2 ml sealed vials (Interchim) for 18 hours at 37° C. with shaking. Propylene production was analyzed by Gas Chromatography (GC) using Bruker 450-GC gas chromatograph equipped with Flame Ionization Detector (FID). Nitrogen was used as carrier gas with a flow rate of 6 ml/min. Volatile compounds were chromatographically separated on GS-Alumina column (30 m×0.53 mm ID) (Agilent) using an isothermal mode at 130° C. The enzymatic reaction product were identified by comparison with standard of propylene (Sigma-Aldrich), the retention time of propylene in these conditions was 1.57 min.

[3] = substrate: O=C(O)CCO; test: Kinetic parameters of adenylation of 3-hydroxycarboxylates, continuous spectrophotometric diphosphate release assay; format: biochemical, Marinobacter aquaeolei; settings: other: 0-10 mM 3-hydroxycarboxylate, 2 mM ATP, 0.1 mg/ml enzyme, pH 7.5
Description: (§1) The genes coding for the adenylate-forming enzymes were synthesized and the corresponding enzymes were further produced according to the procedure described in Example 1. 3-hydroxypropionic acid (TCI) stock solution was prepared in water with the pH adjusted to 7.5 with 1 M NaOH. The release of diphosphate which is associated with 3-hydroxypropionyl-adenylate formation from 3-hydroxypropionate was quantified using the EnzCheck® Pyrophosphatase Assay Kit (E6645, Life Technologies).
(§2) In this assay, diphosphate was hydrolyzed to inorganic phosphate by inorganic pyrophosphatase and phosphate production coupled to phosphorolysis of the 2-amino-6-mercapto-7-methylpurine ribonucleoside (MESG), catalyzed by the enzyme purine nucleoside phosphorylase (PNP). The chromophoric product, 2-amino-6-mercapto-7-methylpurine, was monitored by absorbance at 360 nm (FIG. 9).
(§3) Kinetic parameters were determined by using the spectrophotometric assay described in Example 2. Reaction mixture for the assay of adenylation activity contained:
(§4) 0-10 mM 3-hydroxycarboxylate
(§5) 0.1 mg/ml of purified AMP-dependent synthetase/ligase from M. aquaeolei
(§6) 2-amino-6-mercapto-7-methylpurine ribonucleoside (MESG), purine nucleoside phosphorylase (PNP) and inorganic pyrophosphatase were added to the reaction mix according to the procedure described in the EnzCheck® Pyrophosphatase Assay Kit.

[4] = substrate: CC[C@@H](O)CC(=O)O; test: as above; format: biochemical, Marinobacter aquaeolei; settings: other: 0-10 mM 3-hydroxycarboxylate, 2 mM ATP, 0.1 mg/ml enzyme, pH 7.5
Description: as §1, §2, §3, §4, §5, §6

[5] = substrate: C=CC(O)CC(=O)O; test: as above; format: biochemical, Marinobacter aquaeolei; settings: other: 0-10 mM 3-hydroxycarboxylate, 2 mM ATP, 0.1 mg/ml enzyme, pH 7.5
Description: as §1, §2, §3, §4, §5, §6

3-hydroxyisovalerate = test: Isobutene production from 3-hydroxyisovalerate, M. aquaeolei enzyme and OleC proteins, GC-FID; format: biochemical; settings: 50 mM 3-hydroxyisovalerate, 10 mM ATP, 0.6 mg each enzyme in 0.3 ml, 18 hours at 37° C.
Description: The studied reaction was carried out under the following conditions
Reaction volume was 0.3 ml
0.6 mg of AMP-dependent synthetase/ligase from M. aquaeolei and 0.6 mg of OleC protein were added to 0.3 ml of reaction mixture. A reaction mixture containing only 0.6 mg of AMP-dependent synthetase/ligase from M. aquaeolei was used as reference. The assays were incubated in 2 ml sealed vials (Interchim) for 18 hours at 37° C. with shaking. Isobutene production was analyzed by Gas Chromatography (GC) using Bruker 450-GC gas chromatograph equipped with Flame Ionization Detector (FID). Nitrogen was used as carrier gas with a flow rate of 6 ml/min. Volatile compounds were chromatographically separated on GS-Alumina column (30 m×0.53 mm ID) (Agilent) using an isothermal mode at 130° C. The enzymatic reaction product were identified by comparison with standard of isobutene (Sigma-Aldrich), the retention time of isobutene in these conditions was 2.40 min.

[6] = substrate: CC(C)(O)CC(=O)O; test: purified protein, by the assay type; settings: other: 0-10 mM 3-hydroxycarboxylate, 2 mM ATP, 0.1 mg/ml enzyme, pH 7.5
[7] = substrate: CC(O)CC(=O)O; test: purified protein, by the assay type; settings: other: 0-10 mM 3-hydroxycarboxylate, 2 mM ATP, 0.1 mg/ml enzyme, pH 7.5

Propylene peak area ((R,S)-3-hydroxybutyrate [2]) [arbitrary units] | Isobutene peak area (3-hydroxyisovalerate) [arbitrary units] | Molecule | formation of 3-hydroxybutyryl-adenylate with ATP or ADP as co-substrate ((R,S)-3-hydroxybutyrate [1]) | Km [3] [mM] | kcat [3] [s⁻¹] | Km [4] [mM] | kcat [4] [s⁻¹] | Km [5] [mM] | kcat [5] [s⁻¹] | Km [6] [mM] | kcat [6] [s⁻¹] | Km [7] [mM] | kcat [7] [s⁻¹]
 |  | AMP-dependent synthetase/ligase from Burkholderia sp.: AMP-dependent synthetase and ligase of Burkholderia sp., SEQ ID NO: 4, Uniprot R4WRJ4 (protein, Burkholderia sp. RPE64) MTHSEEIMTTPGIYDEGLPKTAANFAVMTPLTFIERAASVYPNRPAVVHGDVRRTWSETYARTRRLASALAARGIGVGDTVAVMLPNTPEMVEAHFGVPMTGAVLNALNTRLDAATLAFMLTHGEAKAVLVDREFSDVMRRALESVPQKLLVIDVDDSQYAGAGERIGEIEYEALLASGDPAYEWTPPSDEWNAICLNYTSGTTGNPKGVVYHHRGAYTNAVSNILEWDMPAHAVYLWTLPMFHCNGWCFPWTIAARAGVNVCLRRIDAKTVFDLIRNEGVTHYCGAPIVQNMLVNAPDELKAGIAQKVNAMVAGAAPPAAMIEGMERMGFQLTHVYGLTEVYGPATVCAHQAEWSELDIGERARLNARQGVRYHLQDAVTVRDPDTMQLVPPDGETIGEIMFRGNIAMKGYLKNAAATEEAFRGGWFHTGDLAVAYPDGYVRIKDRSKDIIISGGENISSIEVEDVLYRHPAVLAVAVVAKPDARWGETPCAFVELKTGVHVSGEELIAHCKQHLAGFKVPRAIEFCELPKTSTGKIQKFELRKRAGSVTAIDV | able to catalyze the formation of 3-hydroxybutyryl-adenylate by using ATP or ADP as co-substrate |  |  |  |  |  |  |  |  |  | 
 |  | acyl-CoA synthase from M. algicola: acyl-CoA synthetase from Marinobacter algicola, SEQ ID NO: 2, Uniprot A6EZ54 (protein, Marinobacter algicola DG893) MNSIFDKGLEPTDANNATLTPLDFLARTASVYPEYPAVIHGATRRNWQQTYERCRRLASALADRGVGKGDTVAAMLPNIPPMLECHFGIPMLGAVLNALNTRLDAKAIAFMLEHGEAKVLIADREFGDVINEAVGMLDNPPQVIDVNDPEFSGAGTQVSDLDYDAFVASGDPAFDWQMPADEWDAISLCYTSGTTGNPKGVVYHHRGAYENAMGNQAVWSMGMHPVYLWTLPMFHCNGWCFPWTITAFAGTHVCLRKVEPEKILQLISEHKVSHMCGAPIVLNTLLGASEAAKSSFSHTVQAMTAGAAPPAKVIEAIENMGFRVTHVYGLTEVYGPVTVCAWKSEWDDLPVEDRARIKARQGVRYHTLAGMMVGDPETMEAVPKDGNTIGEIFLRGNTVMKGYLKNPKATEEAFRGGWFHTGDLAVWHADGYAEIKDRLKDIIISGGENISTIEVEDVLYRHPDILEAAVVARPDEKWGETPCAFVTLKPEAGEVSEDDIIAFCRERMAKFKVPKTIVFSELPKTSTGKIQKFVLRDDAKKL | able to catalyze the formation of 3-hydroxybutyryl-adenylate by using ATP or ADP as co-substrate |  |  |  |  |  |  |  |  |  | 
0 | 414 | AMP-dependent synthetase/ligase from Marinobacter aquaeolei (Marinobacter nauticus VT8) (protein) MTSIFDQGLEPRDANYAVQSPIDFIERTASVYPDYPAIIHGAIRRTWAETYDRCLRLASALKGRGIGRGDTVAVMLPNIPAMVECHFGIPMIGAVLNTLNVRLDAEAIAFMLEHGEAKVVIADREFGQVIKDAVRHLEHKPLVIDVDDPEYGEGVQVSDLDYEAFLQEGDPQFQWSFPDNEWDAISLNYTSGTTGNPKGVVYHHRGAYINALGNQTVWSMDMHPVYLWTLPMFHCNGWCFPWTITAMAGTHVCLRRVDPEKILQLIHDHQVTHMCGAPIVLNALLNASPEAKAGIDHEVKSMTAGAAPPAQVIGSIEEMGIKVTHVYGLTEVYGPVTVCAWKSEWDELPLHDRAKIKARQGVRYHTLGGTMVADPNTMQPVPKDGKTIGEIFLRGNTVMKGYLKNPTATEEAFRGGWFHTGDLAVWHEDGYMEIKDRLKDIIISGGENISTIEVEDTLYRHPAVLEAAVVARPDEKWGETPCAFITLKPEAGDVSEDDIINFCREHLARFKVPKTVVFTELPKTSTGKIQKFVLRDQAKDLN |  | 5 | 0.04 | 4 | 0.012 | 3 | 0.023 | 10 | 0.007 | 2 | 0.03
